# Data taken from US20260201039A1 (CENTESSA PHARMACEUTICALS UK, published 2026).
# B1: IgG_001 (antibody, V domains shown)
# VH: QVQLVQSGAEVKKPGASVKVSCKASGYTFTSYYIHWVRQAPGQGLEWIGSIYPGNVNTNYNEKEKDRATLTVDTSISTAYMELSRLRSDDTAVYFCTRSHYGLDWNFDVWGQGTTVTVSS
# VL: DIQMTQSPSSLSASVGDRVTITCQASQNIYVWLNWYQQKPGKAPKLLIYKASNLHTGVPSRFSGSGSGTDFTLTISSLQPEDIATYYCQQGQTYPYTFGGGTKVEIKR
# notes: also called TGN derived CD28 V domain IgG_001 on IgG1-Fc isotype
# B2: Anti-CD28 Fab-001 (Fab, V domains shown)
# VH: B1 VH
# VL: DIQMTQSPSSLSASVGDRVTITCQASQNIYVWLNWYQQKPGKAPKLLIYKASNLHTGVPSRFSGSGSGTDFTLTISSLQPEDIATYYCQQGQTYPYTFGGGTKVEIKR
# notes: Monovalent Fab
# B3: LPD28-3, intact (bispecific antibody, human IgG1, kappa)
# heavy: not shown
# light: not shown
# chain: SCPPCPAPEAAGAPSVFLFPPKPKDTLMISRTPEVTCVVVDVSHEDPEVKFNWYVDGVEVHNAKTKPREEQYNSTYRVVSVLTVLHQDWLNGKEYKCKVSNKALPAPIEKTISKAKGQPREPQVCTLPPSRDELTKNQVSLSCAVKGFYPSDIAVEWESNGQPENNYKTTPPVLDSDGSFFLVSKLTVDKSRWQQGNVFSCSVMHEALHNHYTQKSLSLSPGK
# notes: Asymmetric one arm construct: anti-PD-L1 Fab above anti-CD28-2 Fab; also called undigested LPD28-3; LPD28-3 (0 min)
# B4: Fab_002 (Fab, V domains shown)
# VH: QVQLQQSGAELKKPGASVKVSCKASGYTFTEYIIHWIKLRSGQGLEWIGWFYPGSNDIQYNAQFKGKATLTADKSSSTVYMELTGLTPEDSAVYFCARRDDFSGYDALPYWGQGTLVTVSA
# VL: DIQMTQSPSSLSASVGDRVTITCKTNENIYSNLAWYQQKDGKSPQLLIYAATHLVEGVPSRFSGSGSGTQYSLTISSLQPEDFGNYYCQHFWGTPCTFGGGTKLEIKR
# notes: also called Anti-CD28-2 Fab
# B5: IgG_002 (antibody, V domains shown)
# VH: B4 VH
# VL: B4 VL
# notes: also called non superagonist CD28 IgG
# How the values were obtained:
# [1] = molecular target: T1, mouse CD28 recombinant protein (mouse, UniProt P31041 20-150, limits assumed); test: ELISA on coated mouse CD28, absorbance (blank corrected)
# T1 construct: Bought recombinant protein
# Method: (§1) For ELISA binding assays, 384 well or 96 well plates were coated with 1 ug/ml and incubated overnight at 4° C., protected from light. Plates were washed twice with PBS/0.05% Tween 20 before blocking with block buffer (3% milk protein in PBS) for 1 hour at room temperature. Next, test agent or controls were loaded and incubated for 1 hour at room temperature. Plates were then washed three times with PBS/0.05% Tween 20. Finally, HRP conjugated secondary antibody, diluted 1/5,000 in block buffer, was added and incubated for 1 hour at room temperature. Plates were again washed three times with PBS/0.05% Tween before addition of TMB substrate and incubation for 6 minutes at room temperature. Subsequently, the reaction was stopped with stop solution. Absorbance was read at 450 nm and 570 nm. Absorbance at 570 nm was subtracted from absorbance at 450 nm for each plate.
# [2] = molecular target: human CD28 in its native form displayed on the cell surface (human, UniProt P10747 19-220); test: cell-based or functional assay
# [3] = molecular target: T1, mouse CD28 recombinant protein; test: SPR (Biacore 8K), CD28 captured on an anti-His surface, Fab as analyte
# Method: (§2) In order to assess the binding of test Fabs to human or mouse CD28 (Acro Biosystems, Newark, USA), multi-cycle kinetic analysis was performed at 25° C. on a Biacore® 8K (serial no. 2724204) HBS-P+ (Cytiva, Marlborough, USA) supplemented with 0.1% BSA (Sigma, Dorset, UK) was used as running buffer as well as for ligand and analyte dilutions. CD28 proteins were diluted to 1.0 μg/mL in running buffer and at the start of each cycle loaded onto Fc2, of a series S CM5 chip (Cytiva, Marlborough, USA) previously coupled with an anti-His capture antibody (Cytiva, Marlborough, USA) using standard amine chemistry. Ligand was captured at a flow rate of 10 μl/min to give an immobilization level (RL) of ~60 RU. The surface was then allowed to stabilize. Multi-cycle kinetic data was obtained antigens as the analyte injected at a flow rate of 30 μl/min to try and minimize any potential mass transfer effects. A 9 point 2-fold dilution of purified Fab titrated from 0.39 nM to 100 nM was prepared in running buffer for Fab proteins. For each concentration, the association phases were monitored for 240 seconds, and the dissociation phase was measured for 900 seconds. […] Binding was analysed using 1:1 binding analysis due to the high affinity interaction between the antibody and antigen. The data was analysed using a procedure referred to as double referencing. […]
# [4] = molecular target: T2, human/cyno recombinant CD28 protein (human (printed as human/cyno), UniProt P10747 19-152); test: SPR (Biacore 8K), CD28 captured on an anti-His surface, Fab as analyte, multi-cycle kinetics, 1:1 fit
# T2 construct: Bought recombinant protein; also called human recombinant CD28; human/cyno CD28
# Method: In order to assess the binding of test Fabs to human or mouse CD28 (Acro Biosystems, Newark, USA), multi-cycle kinetic analysis was performed at 25° C. on a Biacore® 8K (serial no. 2724204) HBS-P+ (Cytiva, Marlborough, USA) supplemented with 0.1% BSA (Sigma, Dorset, UK) was used as running buffer as well as for ligand and analyte dilutions. CD28 proteins were diluted to 1.0 μg/mL in running buffer and at the start of each cycle loaded onto Fc2, of a series S CM5 chip (Cytiva, Marlborough, USA) previously coupled with an anti-His capture antibody (Cytiva, Marlborough, USA) using standard amine chemistry. Ligand was captured at a flow rate of 10 μl/min to give an immobilization level (RL) of ~60 RU. The surface was then allowed to stabilize. Multi-cycle kinetic data was obtained antigens as the analyte injected at a flow rate of 30 μl/min to try and minimize any potential mass transfer effects. A 9 point 2-fold dilution of purified Fab titrated from 0.39 nM to 100 nM was prepared in running buffer for Fab proteins. For each concentration, the association phases were monitored for 240 seconds, and the dissociation phase was measured for 900 seconds. Regeneration of the sensor chip surface was conducted between cycles using 10 mM glycine pH 2.1. Multiple repeats of a blank and of antigen were programmed into the kinetic run, in order to check the stability of both the surface and analyte over the kinetic cycles. The signal from the reference Fc1 (no ligand captured) was subtracted from that of Fc2 to correct for bulk effect and differences in non-specific binding to a reference surface. The signal from each blank run (ligand captured but no antigen) was subtracted to correct for differences in surface stability. Binding was analysed using 1:1 binding analysis due to the high affinity interaction between the antibody and antigen. The data was analysed using a procedure referred to as double referencing. This refers to the process of first subtracting the reference channel response (Fc1) and then subtracting the zero concentration sensorgram to compensate for bulk effects, baseline drift and small differences between the reference and the active channel.
# [5] = molecular target: T2, human/cyno recombinant CD28 protein; test: SPR (Biacore 8K, 25 C), CD28 captured by anti-His antibody, Fab as analyte, 1:1 fit; Fab_001 (CD28 TGN derived sequence)
# Method: as §2
# [6] = molecular target: T2, human/cyno recombinant CD28 protein; test: ELISA on coated huCD28, corrected absorbance (A450-570 nm)
# Method: as §1
# To assess the ability of undigested fully intact and MMP12 incubated proteins to interact with CD28, binding ELISAs to recombinant human CD28 domain were carried out. In parallel, purified IgG_001 and IgG_002 proteins were used as positive controls while isotype binding was used as negative control.
# [7] = molecular target: T2, human/cyno recombinant CD28 protein; test: SPR (Biacore 8K, 25 C), CD28 captured by anti-His antibody, Fab as analyte, 1:1 fit; Fab_002
# Method: as §2
Binder,binding result [1],binding result [3],Kd [4],koff [4],kon [4],further results
B1,no binding (tested: about 300 nM),–,–,–,–,"mean IL2 secretion, PBMC of 20 donors on plate-coated protein, 72 h [2]: ~2000 pg/mL"
B2,–,no binding,593 pM,0.00027 s⁻¹,455000 M⁻¹ s⁻¹,Kd [5]: 590 pM
B3,–,–,–,–,–,binding result [6]: binds
B4,–,no binding,532 pM,0.000241 s⁻¹,454000 M⁻¹ s⁻¹,Kd [7]: 530 pM
B5,no binding (tested: about 300 nM),–,–,–,–,–
